Laboratory results as given in patent US9993566B2, “SEZ6 modulators and methods of use” (AbbVie Stemcentrx LLC, priority 2013, dated 2018).

Legend:
Format in all cases: binding
[1] = target: T1, human recombinant SEZ6-His (Homo sapiens, UniProt Q53EL9); experiment: Affinity by bio-layer interferometry (ForteBio RED) or surface plasmon resonance (Biacore 2000); settings: surface plasmon resonance
T1 construct: The cDNA fragment encoding the ECD of SEZ6 was amplified from the hSEZ6 cDNA clone; IgK signal peptide (N, cleaved yes); made in house; host or cells: HEK-293T and/or CHO-S
Method: Various methods were used to analyze the binding and immunochemical characteristics of selected SEZ6 modulators generated as set forth above. Specifically, a number of the antibody modulators were characterized as to affinity, binning, and cross reactivity with regard to human, cynomolgus, rat and mouse SEZ6 antigen along with SEZ6L and SEZ6L2 proteins by art-recognized methods including flow cytometry. Affinities and kinetic constants kon and koff of the selected modulators were measured using bio-layer interferometry analysis on a ForteBio RED (ForteBio, Inc.) or surface plasmon resonance using a Biacore 2000 each according to the manufacturer's instructions.
To verify the cross reactivity data above for rat SEZ6 and to determine the affinity and kinetic constants kon and koff of the selected effectors, either bio-layer interferometry analysis on a ForteBio RED (ForteBio, Inc.) or surface plasmon resonance on a Biacore 2000 (GE Healthcare) were conducted. Affinities were determined to both human recombinant SEZ6-His and rat recombinant SEZ6-His generated in Example 5.
Binding characteristics of the following humanized constructs from Example 8, hSC17.16, hSC17.17, hSC17.24, hSC17.28, hSC17.34 and hSC17.46, were analyzed in order to determine whether the CDR grafting process had appreciably altered their binding characteristics. The humanized constructs (CDR grafted) were compared with “traditional” chimeric antibodies comprising the murine parent (or donor) heavy and light chain variable domains and a human constant region substantially equivalent to that used in the humanized constructs. With these constructs surface plasmon resonance was conducted using a Biacore 2000 (GE Healthcare) to identify any subtle changes in rate constants brought about by the humanization process.

mouse SEZ6 = target: T2, mouse SEZ6 (Mus musculus, UniProt Q7TSK2); experiment: Flow cytometry cross reactivity, Neuro2a cells; settings: 5 μg/mL antibody
T2 construct: Neuro2a (ATCC Cat # CCL131), and RIN-m5F (ATCC cat # CRL-11605) cell lines which express mouse SEZ6 and rat SEZ6; host or cells: Neuro2a
T2 sequence (Q7TSK2 20-991): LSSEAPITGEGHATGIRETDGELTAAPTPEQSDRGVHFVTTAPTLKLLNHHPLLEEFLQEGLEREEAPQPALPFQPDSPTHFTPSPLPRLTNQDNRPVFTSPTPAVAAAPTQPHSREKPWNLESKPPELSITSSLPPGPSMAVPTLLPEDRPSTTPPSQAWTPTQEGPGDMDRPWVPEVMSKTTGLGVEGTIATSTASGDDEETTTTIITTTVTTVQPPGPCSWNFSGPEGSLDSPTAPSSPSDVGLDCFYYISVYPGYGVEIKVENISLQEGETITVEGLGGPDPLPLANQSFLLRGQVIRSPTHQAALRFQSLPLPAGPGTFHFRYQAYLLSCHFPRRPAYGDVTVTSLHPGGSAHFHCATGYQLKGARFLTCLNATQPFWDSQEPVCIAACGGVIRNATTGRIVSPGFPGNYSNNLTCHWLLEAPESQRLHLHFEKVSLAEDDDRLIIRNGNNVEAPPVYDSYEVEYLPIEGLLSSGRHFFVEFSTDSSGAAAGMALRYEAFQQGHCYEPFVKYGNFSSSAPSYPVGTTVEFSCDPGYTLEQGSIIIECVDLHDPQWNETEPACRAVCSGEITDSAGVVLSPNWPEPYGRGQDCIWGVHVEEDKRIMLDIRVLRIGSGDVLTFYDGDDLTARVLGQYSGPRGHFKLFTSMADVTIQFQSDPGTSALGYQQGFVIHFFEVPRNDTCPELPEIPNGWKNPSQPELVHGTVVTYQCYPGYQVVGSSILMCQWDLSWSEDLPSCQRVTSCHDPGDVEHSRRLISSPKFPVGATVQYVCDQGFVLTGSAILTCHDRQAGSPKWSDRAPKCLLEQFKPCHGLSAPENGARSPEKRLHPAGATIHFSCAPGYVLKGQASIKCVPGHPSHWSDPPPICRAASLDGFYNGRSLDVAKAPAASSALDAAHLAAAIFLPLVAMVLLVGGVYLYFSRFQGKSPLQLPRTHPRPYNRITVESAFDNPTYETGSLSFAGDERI
Method: (§1) In this regard flow cytometry was performed using a FACSCanto II as per the manufacturer's instructions in order to confirm that selected SC17 antibody modulators can immunospecifically associate with human SEZ6 and to determine whether the same modulators cross-react with cynomolgus, rat and/or murine SEZ6 in addition to SEZ6L and SEZ6L2. More particularly modulators were tested for cross reactivity to murine SEZ6 and rat SEZ6 by flow cytometry against Neuro2a (ATCC Cat # CCL131), and RIN-m5F (ATCC cat # CRL-11605) cell lines which express mouse SEZ6 and rat SEZ6, respectively. For examining cross reactivity to cynomolgus SEZ6, yeast displaying the extracellular domain of cynomolgus SEZ6 (Boder et al, 1997) were used for flow cytometry analysis.
(§2) Briefly 1×10^5 cells per well of Neuro2a, RIN-5mF, or yeast displaying cynomolgus SEZ6 cells were incubated for 30 minutes with 50 μL PBS (2% FCS) buffer with 5 μg/mL antibody. Cells were washed twice with the same buffer and then incubated with 50 μL per sample DyLight 649 labeled goat-anti-mouse IgG, Fc fragment specific secondary diluted 1:200 in PBS buffer. After incubating for 15 minutes cells were washed twice with the PBS buffer and re-suspended in the same with DAPI for flow cytometry analysis of Neuro2a and Rin-m5F or buffer without DAPI for flow cytometric analysis of yeast cells with cSEZ6.

rat SEZ6 = experiment: Flow cytometry cross reactivity, RIN-m5F cells; settings: 5 μg/mL antibody
Chain of rat SEZ6 (as listed by the source): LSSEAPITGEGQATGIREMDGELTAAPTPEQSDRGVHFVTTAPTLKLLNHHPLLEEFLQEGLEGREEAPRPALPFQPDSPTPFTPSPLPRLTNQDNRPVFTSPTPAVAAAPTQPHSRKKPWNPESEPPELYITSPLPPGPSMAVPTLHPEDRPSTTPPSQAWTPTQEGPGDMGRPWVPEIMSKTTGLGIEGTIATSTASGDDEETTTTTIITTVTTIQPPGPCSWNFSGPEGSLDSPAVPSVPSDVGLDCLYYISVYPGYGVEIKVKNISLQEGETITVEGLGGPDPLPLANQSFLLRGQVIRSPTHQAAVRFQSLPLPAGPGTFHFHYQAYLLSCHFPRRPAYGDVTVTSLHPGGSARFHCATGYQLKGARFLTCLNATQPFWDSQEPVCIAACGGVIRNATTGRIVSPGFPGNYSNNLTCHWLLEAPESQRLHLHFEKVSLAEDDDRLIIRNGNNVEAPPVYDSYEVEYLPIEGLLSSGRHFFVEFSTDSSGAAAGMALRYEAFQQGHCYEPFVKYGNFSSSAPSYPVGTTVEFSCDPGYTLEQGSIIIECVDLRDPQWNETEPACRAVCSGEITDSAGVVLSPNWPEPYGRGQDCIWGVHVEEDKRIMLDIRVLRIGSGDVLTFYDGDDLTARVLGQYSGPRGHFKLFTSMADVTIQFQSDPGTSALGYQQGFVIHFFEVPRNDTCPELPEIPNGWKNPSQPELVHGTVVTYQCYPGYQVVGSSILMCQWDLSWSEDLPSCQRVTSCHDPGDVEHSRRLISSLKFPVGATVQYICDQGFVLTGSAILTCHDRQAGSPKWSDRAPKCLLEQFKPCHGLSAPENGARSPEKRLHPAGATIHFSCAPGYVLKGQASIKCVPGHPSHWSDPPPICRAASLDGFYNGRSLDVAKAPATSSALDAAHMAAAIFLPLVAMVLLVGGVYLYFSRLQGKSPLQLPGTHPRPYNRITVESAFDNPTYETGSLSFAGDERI
Method: as §1, §2

cynomolgus SEZ6 = experiment: Flow cytometry cross reactivity, yeast displaying extracellular domain of cynomolgus SEZ6; settings: 5 μg/mL antibody
Method: as §1, §2

SEZ6 ECD = target: T3, SEZ6 ECD (Homo sapiens, UniProt Q53EL9); experiment: Fine epitope mapping (phage display peptide library or yeast-displayed SEZ6 ECD mutants); settings: epitope conformational (discontinuous) or linear
T3 construct: SEZ6 extracellular domain (amino acids 1-904); expressed in transfected cells; host or cells: yeast (surface display, Cochran et al. protocol)
Method: Epitopes were classified either as conformational (i.e. discontinuous) or linear. Yeast displaying the SEZ6 ECD construct was heat treated for 30 minutes at 80° C. in order to denature the antigen, washed twice in ice-cold PBSA and then subjected to the same staining protocol and flow cytometry analysis as described above. Antibodies that bound to both the denatured and native yeast were classified as binding to a linear epitope, whereas antibodies that bound native yeast but not denatured yeast were classified as conformationally specific.
Fine epitope mapping was further performed on selected antibodies to determine the specific amino acids to which they bound. Antibodies that bound to a linear epitope were mapped using the Ph.D.-12 phage display peptide library kit (New England Biolabs E8110S). The antibody selected for epitope mapping was coated onto a Nunc MaxiSorp tube (Nunc) at 50 μg/mL in 3 mL 0.1 M sodium bicarbonate solution, pH 8 and incubated overnight. The tube was blocked with 3% BSA solution in bicarbonate solution. Then, 10^11 input phage in PBS+0.1% Tween-20 was allowed to bind, followed by ten consecutive washes with 0.1% Tween-20 to wash away non-binding phage. Remaining phage were eluted with 1 mL 0.2 M glycine for 10 minutes at room temperature with gentle agitation, followed by neutralization with 150 μL 1 M Tris-HCl pH 9. Eluted phage were amplified and panned again with 10^11 input phage, using 0.5% Tween-20 during the wash steps to increase selection stringency. DNA from 24 plaques of the eluted phage from the second round was isolated using the Qiaprep M13 Spin kit (Qiagen) and sequenced. Binding of clonal phage was confirmed using an ELISA assay, where the mapped antibody or a control antibody was coated onto an ELISA plate, blocked, and exposed to each clone phage. Phage binding was detected using horseradish peroxidase conjugated anti-M13 antibody (GE Healthcare), and the 1-Step Turbo TMB ELISA solution (Pierce). Phage peptide sequences from specifically binding phage were aligned using Vector NTI (Life Technologies) against the antigen ECD peptide sequence to determine the epitope of binding.
Selected antibodies that bound to a discontinuous epitope were mapped using the technique described by Chao et al. (2007). Libraries of SEZ6 ECD mutants were generated with error prone PCR using nucleotide analogues 8-oxo-2′deoxyguanosine-5′-triphosphate and 2′-deoxy-p-nucleoside-5′triphosphate (both from TriLink Bio) for a target mutagenesis rate of one amino acid mutation per clone. These were transformed into a yeast display format. Using the technique described above for domain-level mapping, the library was stained for c-myc and antibody binding at 50 nM. […] These clones were re-grown, and subjected to another round of FACS sorting for loss of binding to the target antibody. Using the Zymoprep Yeast Plasmid Miniprep kit (Zymo Research), individual ECD clones were isolated and sequenced. Where necessary, mutations were reformatted as single-mutant ECD clones using the Quikchange site directed mutagenesis kit (Agilent).
Individual ECD clones were next screened to determine whether loss of binding was due to a mutation in the epitope, or a mutation that caused misfolding. Mutations that involved cysteine, proline, and stop codons were automatically discarded due to the high likelihood of a misfolding mutation. Remaining ECD clones were then screened for binding to a non-competing, conformationally specific antibody. ECD clones that lost binding to non-competing, conformationally specific antibodies were concluded to contain misfolding mutations, whereas ECD clones that retained equivalent binding as wild type SEZ6 ECD were concluded to be properly folded. Mutations in the ECD clones in the latter group were concluded to be in the epitope. […]

Molecule | binding affinity compared with corresponding murine or chimeric antibody [1] | also measured
hSC17.46: humanized (CDR grafted) anti-SEZ6 antibody derived from SC17.46 (antibody, V domains shown, Humanized hSC17.46 VH; Humanized hSC17.46 VL) VH: QVQLVQSGAEVKKPGASVKVSCKASGYTFTSYWINWVRQAPGQGLEWIGNIFPDTTTTNYNEKFKGRVTLTRDTSISTAYMELSRLRSDDTAVYYCAREYYDGTYDAMDYWGQGTLVTVSS VL: AIQMTQSPSSLSASVGDRVTITCKASQSVNNDVAWYQQKPGKAPKLLIYYASNRYTGVPSRFSGSGSGTDFTLTISSLQPEDFATYFCQQDYSSPRTFGQGTKLEIK | equivalent or better than the corresponding murine antibodies | 
hSC17.34: humanized (CDR grafted) anti-SEZ6 antibody derived from SC17.34 (antibody, V domains shown, Humanized hSC17.34 VL) VH: QVQLVQSGAEVKKPGASVKVSCKASGYTFTDYNMDWVRQAPGQRLEWIGYIYPDNGGAGYNQKFKGRVTITVDTSASTAYMELSSLRSEDTAVYYCSRSITTAWFAYWGQGTLVTVSS VL: DIQMTQSPSSLSASVGDRVTITCKASQDINSYLSWFQQKPGKAPKSLIYRANRLVDGVPSRFSGSGSGTDYTLTISSLQPEDFATYYCLQYDEFPPTFGQGTKLEIK | equivalent or better than the corresponding murine antibodies | 
SC17.42: murine anti-SEZ6 antibody (antibody, V domains shown, Murine SC17.42 VH; Murine SC17.42 VL, murine anti-SEZ6 antibody) VH: DVKLVESGGGLVRPGGSLKLSCAASGFTFSRYTMSWVRQTPEKRLEWAATINSGGSNTYYPDSVKGRFTISRDNAKNTLFLQMSSLKSEDTAMYYCTNGNHWGQGTTLTVSS VL: ENVLTQSPAIMSASPGEKVTMTCSASSSVNYMYWYQQKSSTSPKLWIYDTSKLTSGVPGRFSGSGSGNSYSLTISNMEAEDVATYYCFQGSGYPLTFGSGTKLEIK |  | cross reactivity to murine SEZ6 (mouse SEZ6): cross reactive; cross reactivity to rat SEZ6 (rat SEZ6): cross reactive
SC17.24: murine anti-SEZ6 antibody; duplicate sequence of SC17.2 (antibody, V domains shown, Murine SC17.2 VH; Murine SC17.2 VL) VH: QVQLQQSDAELVKPGASVKISCKVSGYTFTDHTIHWMKQRPEQGLEWIGYIYPRDGSTKYNEEFKGKATLTADKSSSTAYMQLNSLTSEDSAVYFCARSYSNYFDYWGQGTTLTVSS VL: DIVMSQSPSSLAVSVGEKVTMSCKSSQSLLYSSNQKSYLAWYQQKPGQSPKLLIYWASTRESGVPDRFTGSGSGTDFTLTISSVQAEDLAVYYCKQSYNLRTFGGGTKLEIK |  | cross reactivity to murine SEZ6 (mouse SEZ6): cross reactive; cross reactivity to cynomolgus SEZ6 (cynomolgus SEZ6): cross reactive; Discontinuous (SEZ6 ECD): No
hSC17.17: humanized (CDR grafted) anti-SEZ6 antibody derived from SC17.17 (antibody, V domains shown, Humanized hSC17.17 VH; Humanized hSC17.17 VL) VH: QVQLVQSGAEVKKPGASVKVSCKASGYTFTDYNMHWVRQAPGQGLEWMGEINPNIGGTGYNQKFKGRVTMTRDTSISTAYMELSRLRSDDTAVYYCARTYSYYSYEFAYWGQGTLVTVSS VL: EIVLTQSPATLSLSPGERATLSCSASSSVSYMHWYQQKPGQAPRLLIYDTSKLPSGIPARFSGSGSGTDFTLTISSLEPEDFAVYYCQQWSSTPPTFGQGTKLEIK | equivalent or better than the corresponding murine antibodies | 
hSC17.16: humanized (CDR grafted) anti-SEZ6 antibody derived from SC17.16 (antibody, V domains shown, Humanized hSC17.16 VH; Humanized hSC17.16 VL) VH: QVQLVQSGAEVKKPGASVKVSCKASGYTFTDYNMYWVRQAPGQGLEWMGEINPNNGGTAYNQKFRGKVTMTRDTSISTAYMELSRLRSDDTAVYYCARYDKGFDYWGQGTTVTVSS VL: DIQMTQSPSSLSASVGDRVTITCRASANINSNLVWYQQKPGKAPKLLIYAATNLADGVPSRFSGSGSGTDFTLTISSLQPEDFATYYCQHFWGTPRTFGGGTKLEIK | equivalent or better than the corresponding murine antibodies | 
hSC17.28: humanized (CDR grafted) anti-SEZ6 antibody derived from SC17.28 (antibody, V domains shown, Humanized hSC17.28 VH; Humanized hSC17.28 VL) VH: QVQLVQSGAEVKKPGASVKVSCKASGYTFTRSYIHWVRQAPGQGLEWMGYISSGSGGTTYNQKFKGRVTSTRDTSISTAYMELSRLRSDDTAVYYCARGGVRYFDVWGQGTTVTVSS VL: EIVLTQSPDFQSVTPKEKVTITCRASQSIGTSIHWYQQKPDQSPKLLIKYASESISGVPSRFSGSGSGTDFTLTINSLEAEDAATYYCQQSNSWPLTFGQGTKLEIK | equivalent or better than the corresponding murine antibodies | 
